# From publication PMC4352251, “The VieB auxiliary protein negatively regulates the VieSA signal transduction system in Vibrio cholerae” (BMC Microbiology, 2015)
# B1: VieB (wild type, His6 tag removed) (natural protein)
# chain: MAVPTFAELKVLIIDDAPIVIASLRSMLLKLGFTDPNIVWSKSPRAAVFMAGRQRFDIFICDYNFGKGLNGKQVFEELKHYKLIKQDAVFVLVTGENSAYVVHSILELKPDEYILKPFNIMTLQERLTNAISRKHALKALYQAERDGDAELGLSLCDELEPFYNDYYFVIQKFRGEFLTQLRRFDHAREVYLETLEHKDFDWAKIGLANALKQTGRQVEATQVIQELLASAPNNVRARVEAASISLCNNSIPEAIHHLQVANQIVPGHSEREWVLANLCLSVGDGASALERYRLYVEINKETYRNNHQMHLNFIRTLLYAARQAESEQRDLWVQEAKSILKGLYDKGQHEDLLAQLELVAAHLAMEEGEFGVSVEILNKIYRAKPFELFEDRYHFTWLLNVMGFDSEFAKCISWCNGTLLNQETDIVLESKVALAKALKEANQEKLQWLEQRYHALCNKQQTIDSLLAIYIEILEKCPTLRTVCMKVVTIFSRYWPTALTESEAERLLKSCHRTIRQLMNEEELQQAQYAELYRKALTFRSRYRLQRTESVEA
# B2: VieA-His6 (response regulator VieA) (natural protein)
# chain: MKIMIVEDDRIQATSLKLKLRQLGLDDVILAENGFAALELCNKVGIDLMFCDIRMPQMDGISLLSQLSLQAPKLGVVILSAVEDTILELTHNMCSLAGFAYVDRLPKPYEVEDLQRVVEGFQKQTEPETSHKPAITLTCDEIEQAFLHDHIFNYYQPQFDFRSGAMVGVEALVRYEHPTHGMLSPAVFLPLIEQCGLHEKLFLTVLEKSVSALASIGADLQLSVNISQRNLQHSICDPILAICERYGFPASKLTLEMTEHEVYNGTPTSLANLARLRMYGVGLSIDDFGTGYASLGQLAQLPFTELKIDRSFVHDLATNYKHQQLTNMCLLLAQSLGLHCVVEGVENEETWQYLRQLGVDTCQGYYAAKPMPIAQLSELYTKNRRQCLGCQSMDDGWQILLVDNHMLSATALQKVLNKEENVSKVFVAQDIEQTLHKLRDLPINLLVVESRFLSTISPAAFHELLEPYYRGALLVLHDGLTAEAQEDEPKAIVVKANTLMETSSRILLQAQQSNVRPQAQQEELAQLSERELTVAKMLVEGLTNKEIALQLDINQKTVSTYKTRIMTKLGIKSAMELVRFVTLK
# notes: not shown: His6, C-terminal, kept
# Key:
# [1] = target: VieS-C (untagged cytoplasmic portion of the sensor kinase VieS) (UniProt O68317); test: SEC-MALS; Superose12 10/300 GL in Gel Filtration Buffer (25 mM Tris pH 7.5, 100 mM KCl, 1 mM DTT, 5% glycerol); column at 4°C, light scattering at 25°C; self-association of each protein
# [2] = target: VieS-C (untagged cytoplasmic portion of the sensor kinase VieS) (UniProt O68317); test: composition-gradient MALS (CG-MALS)
# [3] = target: the molecule itself; test: SEC-MALS; Superose12 10/300 GL in Gel Filtration Buffer (25 mM Tris pH 7.5, 100 mM KCl, 1 mM DTT, 5% glycerol); column at 4°C, light scattering at 25°C; self-association of each protein
Molecule,stoichiometry N [1],Kd [2] [nM],stoichiometry N (VieB monomer per VieS-C dimer) [2],stoichiometry N (VieA-His6 dimer per VieS-C dimer) [2],stoichiometry N [3]
VieS-C (untagged cytoplasmic portion of the sensor kinase VieS) (from UniProt O68317 1-1146) (domain or fragment),2,,,,
B1,,467,1,,
B2,,1380,,1,2
